“Also recorded” adds a separate entry of the source. One block for each molecule: values may come before it. Where no end group is shown, it is not given here.
What was measured:
CaMKIIδ = CaMKIIδ (Homo sapiens, UniProt Q13557); experiment: in vitro inhibition of CaMKIIδ, bioluminescent ADP monitoring assay (ADP-GLO); assay type: biochemical; settings: purified polypeptides
Description: FIG. 4 provides a schematic illustrating the design of an in vitro experiment to evaluate the impact of the purified polypeptides described in FIG. 2D and shown in the left portion of FIG. 4 on CaMKIIδ (an isomer of CaMKII) activity. Activity of CaMKIIδ was measured using a bioluminescent and homogeneous ADP monitoring assay for kinases (ADP-GLO™), which is described in Zegzouti, et al. “ADP-Glo: A Bioluminescent and Homogeneous ADP Monitoring Assay for Kinases,” ASSAY and Drug Development Technologies, December 2009, 560-572, doi.org/10.1089/adt.2009.0222, the disclosure of which is incorporated herein by reference in its entirety for all purposes.
Inhibition of CaMKIIδ activity by the polypeptides was evaluated using a bioluminescent and homogeneous ADP monitoring assay for kinases (ADP-GLO™), which is described in Zegzouti, et al. “ADP-Glo: A Bioluminescent and Homogeneous ADP Monitoring Assay for Kinases,” ASSAY and Drug Development Technologies, December 2009, 560-572, doi.org/10.1089/adt.2009.0222, the disclosure of which is incorporated herein by reference in its entirety for all purposes (FIG. 4).

CaMKII = settings: FIG. 2A, in vitro system of the cited papers; cited from earlier work
LKB1 knockout mice = experiment: Example 5: beat-to-beat variability (EKG) in LKB1 knockout mice (AF model); assay type: in vivo, mouse
Text: Two different atrial fibrillation (AF) mouse models were used to test the efficacy of AIP×5 at treating AF of different origins. The two different AF mouse models were liver kinase B1 (LKB1) knock out mice and T-box transcription factor 5 (Tbx5) knock out mice.
LKB1-floxed or Tbx5-floxed mice were used to test the efficacy of AIP×5. AAV-NPPA-Cre was then used to conditionally knock out LKB1 or Tbx5 from the atria of the mice. NPPA is an atria specific promoter, ensuring that Cre recombinase directed knockout of LKB1 or Tbx5 was restricted to the atria. AAV-NPPA-FP (fluorescent protein) was used as a control virus. AAV-NPPA-FP has no Cre, and therefore the gene of interest is not knocked out. Uninjected mice were also included as a control to account for any effects caused by AAV injections. AAV-cTnT-AIP×5 or AAV-cTnT-CN19o were both tested as potential therapies to AF.
In short, P3 LKB1-floxed or Tbx5-floxed mice were injected (or not injected in the uninjected controls), and then EKG measurements of the mice were taken every two weeks starting at P14. At 12 weeks, the mice were sacrificed, and the sacrificed mice were tested for protein expression.
AF was calculated using the standard deviation of the beat-to-beat timing differences. A high beat-to-beat variability when sedated was indicative of atrial misfiring.
Statistical significance in the tests illustrated in FIGS. 10 and 11 was conducted using a 2-way Anova with post-hoc Dunnett's multiple comparisons to control (FP) group.

CaMKIIδ, Q13557 = experiment: cell-based or functional assay
AIPx5 multimer = biological target: T1, AIPx5 multimer
T1 chain: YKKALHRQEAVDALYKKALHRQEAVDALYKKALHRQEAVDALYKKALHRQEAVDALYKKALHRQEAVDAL

[1] = biological target: T2, autocamtide-2-related inhibitory peptide (AIP)
T2 chain: YKKALHRQEAVDAL

CaMKIIδ, sequence (Q13557 1-478): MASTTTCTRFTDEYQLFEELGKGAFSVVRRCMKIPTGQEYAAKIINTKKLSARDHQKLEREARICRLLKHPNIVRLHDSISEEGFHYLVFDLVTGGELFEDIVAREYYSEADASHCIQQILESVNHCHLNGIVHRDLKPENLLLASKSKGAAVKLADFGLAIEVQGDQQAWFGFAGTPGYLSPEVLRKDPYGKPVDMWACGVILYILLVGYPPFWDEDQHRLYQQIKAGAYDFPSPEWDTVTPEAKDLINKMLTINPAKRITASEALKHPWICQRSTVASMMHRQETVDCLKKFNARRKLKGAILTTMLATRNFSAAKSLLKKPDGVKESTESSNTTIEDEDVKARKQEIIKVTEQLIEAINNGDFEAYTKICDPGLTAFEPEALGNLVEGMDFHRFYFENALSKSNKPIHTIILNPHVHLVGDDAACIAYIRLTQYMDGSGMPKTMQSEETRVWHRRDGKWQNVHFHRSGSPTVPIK
CaMKIIδ, Q13557, sequence (Q13557 whole entry, stated change not applied): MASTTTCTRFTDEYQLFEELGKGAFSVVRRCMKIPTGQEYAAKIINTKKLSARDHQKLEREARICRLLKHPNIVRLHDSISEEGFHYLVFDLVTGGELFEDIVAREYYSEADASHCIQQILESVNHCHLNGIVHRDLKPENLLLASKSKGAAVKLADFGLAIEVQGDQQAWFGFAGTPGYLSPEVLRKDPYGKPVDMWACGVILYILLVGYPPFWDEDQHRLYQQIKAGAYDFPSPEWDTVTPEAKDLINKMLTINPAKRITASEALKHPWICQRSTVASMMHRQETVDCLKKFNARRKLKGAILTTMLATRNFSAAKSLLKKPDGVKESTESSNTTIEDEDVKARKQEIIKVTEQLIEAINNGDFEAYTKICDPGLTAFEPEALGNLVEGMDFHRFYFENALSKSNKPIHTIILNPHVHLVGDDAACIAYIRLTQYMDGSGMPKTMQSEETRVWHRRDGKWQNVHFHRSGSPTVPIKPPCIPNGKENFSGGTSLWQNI

Molecule: YKKALHRQEAVDALYKKALHRQEAVDALYKKALHRQEAVDAL [AIP×3]
EC50 (CaMKIIδ): 0.543 µM

Molecule: KRAPKLGQIGRQKAVDIED [CN19o, reference compound]
IC50 / potency of CaMKII inhibition compared with AIP (CaMKII): lower IC50 than AIP; also recorded: more potent inhibitor of CaMKII than AIP
beat-to-beat variability compared to LKB1 knockout mice alone (LKB1 knockout mice): performed worse in measures of beat-to-beat variability than LKB1 knockout mice alone
suppression of beat-to-beat variability (LKB1 knockout mice; AAV-cTnT vector, FIG. 10): did not suppress beat-to-beat variability
EC50 (CaMKIIδ): 0.0016 µM

B1: AIPx5 multimer (peptide)
peptide: T1 chain
EC50 (inhibition of CaMKIIδ activity, ADP-GLO bioluminescent ADP monitoring assay) (CaMKIIδ, Q13557): 0.114 µM

B2: CaMKII (endogenous, mouse heart) (protein)
chain: MATTATCTRFTDDYQLFEELGKGAFSVVRRCVKKTSTQEYAAKIINTKKLSARDHQKLEREARICRLLKHPNIVRLHDSISEEGFHYLVFDLVTGGELFEDIVAREYYSEADASHCIHQILESVNHIHQHDIVHRDLKPENLLLASKCKGAAVKLADFGLAIEVQGEQQAWFGFAGTPGYLSPEVLRKDPYGKPVDIWACGVILYILLVGYPPFWDEDQHKLYQQIKAGAYDFPSPEWDTVTPEAKNLINQMLTINPAKRITADQALKHPWQRSTVASMMHRQETVECLRKFNARRKLKGAILTTMLVSRNFSAAKSLLNKKSDGGVKKRKSSSSVHLMPQSNNKNSLVSPAQEPAPLQTAMEPQTTVVHNATDGIKGSTESCNTTTEDEDLKAAPLRTGNGSLVPEGRSPRDRTAPSAGMQPQPSLCSSAMRKQEIIKITEQLIEAINNGDFEAYTKICDPGLTSFEPEALGNLVEGMDFHKFYFENLLSKNSKPIHTTILNPHVHVIGEDAACIAYIRLTQYIDGQGRPRTSQSEETRVWHRRDGKWLNVHYHCSGAPAAPLQ
phosphorylation of phospholamban (PLB) at threonine-17 in heart tissue exposed to isoproterenol (capillary Western, pPLB/PLB) (AIPx5 multimer): contacting cells with AIP or AIP×5 resulted in a statistically significant decrease in PLB phosphorylation in cells exposed to ISO
phosphorylation of phospholamban (PLB) at threonine-17 in heart tissue exposed to isoproterenol (capillary Western, pPLB/PLB) [1]: contacting cells with AIP or AIP×5 resulted in a statistically significant decrease in PLB phosphorylation in cells exposed to ISO

Molecule: YKKALHRQEAVDALYKKALHRQEAVDALYKKALHRQEAVDAL [AIPx3 multimer]
EC50 (inhibition of CaMKIIδ activity, ADP-GLO bioluminescent ADP monitoring assay) (CaMKIIδ, Q13557): 0.543 µM

Molecule: KRAPKLGQIGRQKAVDIED [CN19o]
EC50 (inhibition of CaMKIIδ activity, ADP-GLO bioluminescent ADP monitoring assay) (CaMKIIδ, Q13557): 0.0016 µM

Results, then the molecule that gave them:

EC50 (CaMKIIδ): 0.0021 µM
Molecule: KRAPKLGQIGRQKAVDIEDKRAPKLGQIGRQKAVDIEDKRAPKLGQIGRQKAVDIED [CN19oX3]

EC50 (inhibition of CaMKIIδ activity, ADP-GLO bioluminescent ADP monitoring assay) (CaMKIIδ, Q13557): 6.15 µM
Molecule: YKKALHRQEAVDAL [autocamtide-2-related inhibitory peptide (AIP)]

EC50 (inhibition of CaMKIIδ activity, ADP-GLO bioluminescent ADP monitoring assay) (CaMKIIδ, Q13557): 0.0021 µM
B3: CN19oX3 multimer (peptide)
peptide: KRAPKLGQIGRQKAVDIEDKRAPKLGQIGRQKAVDIEDKRAPKLGQIGRQKAVDIED
